Data taken from PMC5738090, “Functional implications of hexameric assembly of RraA proteins from Vibrio vulnificus” (PLoS ONE, 2017).

How the values were obtained:
Assay in all cases: SEC-MALS; Superdex 200 Increase 5/150 GL; proteins at 3 mg/ml; 20 mM Tris-HCl pH 8.0, 300 mM NaCl, 5% glycerol, 2 mM 2-mercaptoethanol
[1] = target: VvRraA2 (RraA ortholog 2 of Vibrio vulnificus), hexahistidine-tagged (Vibrio vulnificus MO6-24/O)
[2] = target: VvRraA1 (RraA ortholog 1 of Vibrio vulnificus), hexahistidine-tagged (Vibrio vulnificus MO6-24/O)
[3] = target: the molecule itself

Work on “VvRraA2 (RraA ortholog 2 of Vibrio vulnificus), hexahistidine-tagged (natural protein)” yielded a stoichiometry N [1] of 3.

“VvRraA1 (RraA ortholog 1 of Vibrio vulnificus), hexahistidine-tagged (natural protein)” showed a stoichiometry N [2] of 6.

B1: E. coli RraA (natural protein)
chain: MKYDTSELCDIYQEDVNVVEPLFSNFGGRASFGGQIITVKCFEDNGLLYDLLEQNGRGRVLVVDGGGSVRRALVDAELARLAVQNEWEGLVIYGAVRQVDDLEELDIGIQAMAAIPVGAAGEGIGESDVRVNFGGVTFFSGDHLYADNTGIILSEDPLDIE
notes: RraA, regulator of ribonuclease activity A, Escherichia coli; the construct is not described here; Hexamer by SEC-MALS (87.05 kDa); also called EcRraA
With B1 the “stoichiometry N” value [3] was 6.
